This is an account of results in PMC6131271.

The target of experiment [1] is Diaz-ES-VWFIIINle (diazirine-bearing end-stapled triple-helical peptide of three VWFIIINle strands). Kind of experiment: ELISA; 100% EDC/NHS crosslinked collagen films in 96-well plates, without peptide or incubated with peptide at 5 μg/ml for 30 min, then UV (365 nm) for 5 min, washed with citrate buffer pH 3 and PBS; VWF-A3-GST at 5 μg/ml in PBS 0.1% BSA, room temperature; anti-GST HRP, A450.

Experiment [2] deals with bovine Achilles tendon collagen type I film, 100% EDC/NHS crosslinked (bovine) (UniProt P02453). The description is as above.
The target is the same in experiment [3]. Kind of experiment: ELISA; collagen films in 96-well plates, EDC/NHS crosslinked 0% to 100%, blocked with PBS 5% BSA; VWF A3-GST at 5 μg/ml in PBS 0.1% BSA, room temperature (2 h in the methods, 1 h in the legend); anti-GST HRP, TMB, A450. On the technique in general: An ELISA detects its analyte on a solid surface through an enzyme-linked reagent.
For experiment [4], the target named is bovine Achilles tendon collagen type I, non-crosslinked film (bovine) (UniProt P02453). Described as above.
Experiment [5] deals with bovine Achilles tendon collagen type I film, 50% EDC/NHS crosslinked (bovine) (UniProt P02453). Described as above.
The target of experiment [6] is Diaz-ES-VWFIIINle (diazirine-bearing end-stapled triple-helical peptide of three VWFIIINle strands).
For experiment [7], the target named is bovine Achilles tendon collagen type I film, 100% EDC/NHS crosslinked (bovine) (UniProt P02453).
Experiment [8] concerns the target Diaz-ES-VWFIIINle (diazirine-bearing end-stapled triple-helical peptide of three VWFIIINle strands). Put plainly: ELISA; 100% EDC/NHS crosslinked collagen films in 96-well plates, without peptide or incubated with peptide at 5 μg/ml, left in the dark (no UV), washed with citrate buffer pH 3 and PBS; VWF-A3-GST at 5 μg/ml in PBS 0.1% BSA, room temperature; anti-GST HRP, A450.

Experiment [9] has as its target bovine Achilles tendon collagen type I film, 100% EDC/NHS crosslinked (bovine) (UniProt P02453). The experiment is described as above.
The target of experiment [10] is III-23, GPC(GPP)5GPOGPSGPRGQOGVMGFOGPKGNDGAO(GPP)5GPC. Put plainly: ELISA; control wells coated with III-23 or BSA; VWF-A3-GST at 5 μg/ml in PBS 0.1% BSA, room temperature; anti-GST HRP, A450.
For experiment [11], the target named is Diaz-ES-VWFIIINle (diazirine-bearing end-stapled triple-helical peptide of three VWFIIINle strands). Kind of experiment: ELISA; 100% EDC/NHS crosslinked collagen films in 96-well plates, without peptide or incubated with peptide at 5 μg/ml for 30 min, then UV (365 nm) for 5 min, washed with citrate buffer pH 3 and PBS; DDR2-Fc at 1 μg/ml in PBS 0.1% BSA and 0.05% Tween-20, 2 h, room temperature; anti-Fc HRP, A450.

Experiment [12] concerns the target bovine Achilles tendon collagen type I film, 100% EDC/NHS crosslinked (bovine) (UniProt P02453). Described as above.
Experiment [13] has the same target. Put plainly: ELISA; 100% EDC/NHS crosslinked collagen films in 96-well plates, without peptide or incubated with peptide at 5 μg/ml, left in the dark (no UV), washed with citrate buffer pH 3 and PBS; DDR2-Fc at 1 μg/ml in PBS 0.1% BSA and 0.05% Tween-20, 2 h, room temperature; anti-Fc HRP, A450.
For experiment [14] the target is unchanged. Kind of experiment: ELISA; collagen films in 96-well plates, EDC/NHS crosslinked 0% to 100%, blocked with PBS 5% BSA; DDR2-Fc at 1 μg/ml in PBS 0.1% BSA with 0.05% Tween-20, 2 h, room temperature; anti-Fc HRP, TMB, A370 read before addition of sulfuric acid.
Experiment [15] deals with bovine Achilles tendon collagen type I, non-crosslinked film (bovine) (UniProt P02453). The description is as above.
Experiment [16] addresses All other peptide treatments. Kind of experiment: ELISA; as a6 and a7, the three other peptide treatments taken together (VWFIIINle with UV, VWFIIINle without UV, Diaz-ES-VWFIIINle without UV) on 100% crosslinked films; DDR2-Fc at 1 μg/ml; A450.

In the case of “recombinant GST-tagged human VWF-A3 domain (from UniProt P04275 23-2813) (domain or fragment)”, the A450 in [1] stood at 1.8 absorbance; in experiment [2] it was 0.24 absorbance; in experiment [3] it was 0.13 absorbance; in experiment [4], 0.57 absorbance; in experiment [5] it was 0.12 absorbance; in experiment [8], 1.25 absorbance. In addition, the A450 in [9] was 0.26 absorbance; in experiment [10] it was 1.42 absorbance. In addition, the platelet surface coverage; human whole blood (full-length plasma VWF) perfused at 1000 s^-1 over 100% crosslinked films with Diaz-ES-VWFIIINle after UV in experiment [6] was 42.9%. This molecule registered a platelet surface coverage; human whole blood (full-length plasma VWF) perfused at 1000 s^-1 over 100% crosslinked films without peptide in experiment [7] of 5.6%.

B1: Recombinant soluble protein comprising the entire DDR2 extracellular region, fused to the Fc-sequence of human IgG2 (Fc fusion)
chain: KAQVNPAICRYPLGMSGGQIPDEDITASSQWSESTAAKYGRLDSEEGDGAWCPEIPVEPDDLKEFLQIDLHTLHFITLVGTQGRHAGGHGIEFAPMYKINYSRDGTRWISWRNRHGKQVLDGNSNPYDIFLKDLEPPIVARFVRFIPVTDHSMNVCMRVELYGCVWLDGLVSYNAPAGQQFVLPGGSIIYLNDSVYDGAVGYSMTEGLGQLTDGVSGLDDFTQTHEYHVWPGYDYVGWRNESATNGYIEIMFEFDRIRNFTTMKVHCNNMFAKGVKIFKEVQCYFRSEASEWEPNAISFPLVLDDVNPSARFVTVPLHHRMASAIKCQYHFADTWMMFSEITFQSDAAMYNNSEALPTSPMAPTTYDPMLKVDDSNTR
For the molecule B1, the A450 in experiment [11] was 1.9 absorbance; in experiment [12] it was 0.61 absorbance; in experiment [13], 0.61 absorbance; in experiment [16], 1.16 to 1.43 absorbance. Also, the A370 is 0.18 absorbance in [14] and 0.32 absorbance in [15].
